Source: patent publication US20240101677A1

Columns and labels:
CD16A-158V-G129D (human) = experiment: BLI (ForteBio), method of Example 3, mutant antigen
[1] = molecular target: cynomolgus monkey CD16A protein (cynomolgus monkey) (UniProt Q8SPW2); experiment: BLI (ForteBio), antibody on Protein A sensor, antigen 100 nM, 1:1 model
[2] = molecular target: human CD16A-158F protein (human) (UniProt P08637); experiment: as above
[3] = molecular target: human CD16A-158V protein (human) (UniProt P08637); experiment: as above
[4] = molecular target: CD16A on human primary NK cells (human) (UniProt P08637); experiment: flow cytometry (MFI, PE-anti-human Fc) on human primary NK cells, donor SLB190084
[5] = molecular target: CD16A on human primary NK cells (human) (UniProt P08637); experiment: flow cytometry (MFI, PE-anti-human Fc) on human primary NK cells, donor SLB190071
[6] = molecular target: human CD16A (type 158V) on GS-CHO cells (human) (UniProt P08637); experiment: flow cytometry (MFI, PE-anti-human Fc) on GS-CHO cells expressing human CD16A (type 158V)
Chain of human CD16A (type 158V) on GS-CHO cells (human) (P08637 17-254 F176V): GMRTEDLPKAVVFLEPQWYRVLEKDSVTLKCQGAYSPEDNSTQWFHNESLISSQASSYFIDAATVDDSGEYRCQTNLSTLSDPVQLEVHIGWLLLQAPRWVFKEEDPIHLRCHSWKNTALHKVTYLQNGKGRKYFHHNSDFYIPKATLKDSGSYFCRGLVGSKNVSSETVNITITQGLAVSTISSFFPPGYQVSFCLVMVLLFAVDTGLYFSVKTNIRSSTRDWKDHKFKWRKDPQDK

Chain of CD16A on human primary NK cells (human) (P08637 17-254): as the sequence (P08637 17-254 F176V) above, with V160F counted along it
Chain of human CD16A-158V protein (human) (P08637 17-208 F176V limits assumed): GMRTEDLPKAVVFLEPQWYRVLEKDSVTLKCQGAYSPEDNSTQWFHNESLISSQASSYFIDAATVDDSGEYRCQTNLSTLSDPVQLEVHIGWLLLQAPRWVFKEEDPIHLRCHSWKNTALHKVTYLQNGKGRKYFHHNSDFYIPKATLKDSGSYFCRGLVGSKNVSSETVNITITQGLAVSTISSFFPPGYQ
Chain of cynomolgus monkey CD16A protein (cynomolgus monkey) (Q8SPW2 17-208 limits assumed): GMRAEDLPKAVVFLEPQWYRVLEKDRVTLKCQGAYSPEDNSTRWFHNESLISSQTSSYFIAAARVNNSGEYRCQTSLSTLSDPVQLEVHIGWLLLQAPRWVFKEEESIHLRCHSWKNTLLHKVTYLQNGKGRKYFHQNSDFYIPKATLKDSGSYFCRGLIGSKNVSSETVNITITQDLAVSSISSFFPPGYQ
Chain of human CD16A-158F protein (human) (P08637 17-208 limits assumed): as the sequence (P08637 17-208 F176V limits assumed) above, with V160F counted along it
Chain of CD16A-158V-G129D (human) (chain, as listed by the source G129D G129D limits assumed): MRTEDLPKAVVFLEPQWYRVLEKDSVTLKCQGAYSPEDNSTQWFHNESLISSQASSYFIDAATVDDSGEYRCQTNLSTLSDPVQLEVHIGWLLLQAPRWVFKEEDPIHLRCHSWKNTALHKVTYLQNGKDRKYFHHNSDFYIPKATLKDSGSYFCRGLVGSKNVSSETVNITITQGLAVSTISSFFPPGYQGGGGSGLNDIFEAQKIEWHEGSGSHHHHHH

B1: 4LS21 antibody (CD16A humanized antibody 4LS21 from Affimed Therapeutics AG, in the form of ScFv-Fc) (Fc fusion, not shown: a dimerising Fc or GST; small tags and cut ends)
VH: QVQLVQSGAEVKKPGESLKVSCKASGYTFTSYYMHWVRQAPGQGLEWMGAIEPMYGSTSYAQKFQGRVTMTRDTSTSTVYMELSSLRSEDTAVYYCARGSAYYYDFADYWGQGTLVTVSS
VL: SYVLTQPSSVSVAPGQTATISCGGHNIGSKNVHWYQQRPGQSPVLVIYQDNKRPSGIPERFSGSNSGNTATLTISGTQAMDEADYYCQVWDNYSVLFGGGTKLTVL
Which results are given for B1?
Kd (CD16A-158V-G129D (human)): 4.63 nM; Kd [1]: 7.94 nM; Kd [2]: 4.75 nM; Kd [3]: 7.75 nM; EC50 [4]: 15.6 nM; EC50 [5]: 2.64 nM; EC50 [6]: 11.8 nM
